Test results: IntAct's records for PubMed 11864996

B1: Forkhead box protein O3 (Homo sapiens), O43524 (parent)
chain: MAEAPASPAPLSPLEVELDPEFEPQSRPRSCTWPLQRPELQASPAKPSGETAADSMIPEEEDDEDDEDGGGRAGSAMAIGGGGGSGTLGSGLLLEDSARVLAPGGQDPGSGPATAAGGLSGGTQALLQPQQPLPPPQPGAAGGSGQPRKCSSRRNAWGNLSYADLITRAIESSPDKRLTLSQIYEWMVRCVPYFKDKGDSNSSAGWKNSIRHNLSLHSRFMRVQNEGTGKSSWWIINPDGGKSGKAPRRRAVSMDNSNKYTKSRGRAAKKKAALQTAPESADDSPSQLSKWPGSPTSRSSDELDAWTDFRSRTNSNASTVSGRLSPIMASTELDEVQDDDAPLSPMLYSSSASLSPSVSKPCTVELPRLTDMAGTMNLNDGLTENLMDDLLDNITLPPSQPSPTGGLMQRSSSFPYTTKGSGLGSPTSSFNSTVFGPSSLNSLRQSPMQTIQENKPATFSSMSHYGNQTLQDLLTSDSLSHSDVMMTQSDPLMSQASTAVSAQNSRRNVMLRNDPMMSFAAQPNQGSLVNQNLLHHQHQTQGALGGSRALSNSVSNMGLSESSSLGSAKHQQQSPVSQSMQTLSDSLSGSSLYSTSANLPVMGHEKFPSDLDLDMFNGSLECDMESIIRSELMDADGLDFNFDSLISTQNVVGLNVGNFTGAKQASSQSWVPG

Variants of: B1
Conditions: with 1433z_human YWHAZ

Row | Variant | effect of a mutation on the interaction
1 | T32A;S253A;S315A | disrupting interaction
